Experiment in all cases: cell-based or functional assay
The target of test [1] is HIV-1 JR-CSF Env S393A (HIV-1 (isolate JR-CSF)) (UniProt P20871).
Test [2] has as its target HIV-1 Env of pseudovirus isolate MGRM-C-025 (clade C) (HIV-1).
In test [3] the target is HIV-1 Env of pseudovirus isolate MGRM-C-019 (clade C) (HIV-1).
Test [4] concerns the target HIV-1 Env of isolate MGRM-A-006 (pseudovirus) (HIV-1).
The target in test [5] is HIV-1 Env of isolate MGRM-D-016 (pseudovirus) (HIV-1).
Test [6] concerns the target HIV-1 Env of isolate MGRM-D-024 (HIV-1).
Test [7] has as its target HIV-1 Env of isolate MGRM-C-001 (HIV-1).
Test [8] has as its target HIV-1 Env of isolate MGRM-F1-006 (HIV-1).
Test [9] has as its target HIV-1 Env of isolate 92RW008 (pseudovirus) (HIV-1).
Test [10] addresses HIV-1 envelope glycoprotein (Env) of isolate MGRM-AE-008 (HIV-1).
For test [11], the target named is HIV-1 Env of pseudovirus MGRM-D-014 (HIV-1).
The target in test [12] is HIV-1 Env of pseudovirus MGRM-F1-006 (HIV-1).
The target of test [13] is HIV-1 Env of pseudovirus isolate 93TH305 (clade B) (HIV-1).
Test [14] has as its target HIV-1 Env of isolate MGRM-C-017 (subtype C), on pseudovirus (HIV-1).
Test [15] concerns the target HIV-1 Env of pseudovirus isolate 92BR020 (clade B) (HIV-1).
Test [16] addresses HIV-1 Env of pseudovirus isolate MGRM-Chronic-B-008 (clade B) (HIV-1).
Test [17] has as its target HIV-1 Env of pseudovirus isolate APV-13 (clade B) (HIV-1).
The target of test [18] is HIV-1 92UG005 Env (HIV-1).

Chain of PGT-144 (4970_K22) (antibody) (VH): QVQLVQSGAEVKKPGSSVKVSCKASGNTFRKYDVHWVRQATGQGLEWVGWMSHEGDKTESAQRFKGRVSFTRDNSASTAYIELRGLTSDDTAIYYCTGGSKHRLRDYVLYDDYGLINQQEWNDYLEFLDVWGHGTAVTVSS
Chain of PGT-144 (4970_K22) (antibody) (VL): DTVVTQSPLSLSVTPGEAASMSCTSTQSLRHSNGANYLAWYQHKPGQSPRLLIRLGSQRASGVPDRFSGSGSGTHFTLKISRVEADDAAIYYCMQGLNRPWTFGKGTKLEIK
Chain of PGT-145 (4995_P16) (antibody) (VH): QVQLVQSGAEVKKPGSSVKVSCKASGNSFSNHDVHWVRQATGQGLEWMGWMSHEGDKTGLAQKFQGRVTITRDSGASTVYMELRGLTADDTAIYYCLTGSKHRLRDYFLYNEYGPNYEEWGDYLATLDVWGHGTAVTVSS
Chain of PGT-145 (4995_P16) (antibody) (VL): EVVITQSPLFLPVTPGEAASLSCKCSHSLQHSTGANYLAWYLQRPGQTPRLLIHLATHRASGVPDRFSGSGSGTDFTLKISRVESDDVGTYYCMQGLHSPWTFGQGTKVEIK
Chain of PGT-142 (4995_E20) (antibody) (VH): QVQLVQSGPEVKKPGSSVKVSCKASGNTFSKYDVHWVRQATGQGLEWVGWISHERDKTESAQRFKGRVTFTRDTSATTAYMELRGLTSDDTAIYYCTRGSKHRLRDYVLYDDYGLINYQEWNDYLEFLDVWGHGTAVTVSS
Chain of PGT-142 (4995_E20) (antibody) (VL): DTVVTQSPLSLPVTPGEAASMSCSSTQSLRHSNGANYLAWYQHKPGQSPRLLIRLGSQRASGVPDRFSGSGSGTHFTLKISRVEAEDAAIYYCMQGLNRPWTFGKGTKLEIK
Chain of PGT-143 (4980_N08) (antibody) (VH): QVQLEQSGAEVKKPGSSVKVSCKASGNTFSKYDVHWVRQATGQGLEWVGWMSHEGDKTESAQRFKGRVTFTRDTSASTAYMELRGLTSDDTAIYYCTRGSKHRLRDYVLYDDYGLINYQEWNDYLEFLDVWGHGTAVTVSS
Chain of PGT-143 (4980_N08) (antibody) (VL): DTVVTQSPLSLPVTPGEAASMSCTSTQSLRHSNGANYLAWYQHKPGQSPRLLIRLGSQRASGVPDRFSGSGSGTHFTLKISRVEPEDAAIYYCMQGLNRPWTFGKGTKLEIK
Chain of PGT-141 (4964_G22; 4993_K13) (antibody) (VH): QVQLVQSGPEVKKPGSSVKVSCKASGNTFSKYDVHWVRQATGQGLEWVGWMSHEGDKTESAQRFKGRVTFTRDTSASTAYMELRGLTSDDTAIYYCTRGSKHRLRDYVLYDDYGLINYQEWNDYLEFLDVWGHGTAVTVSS

In test [1], 5136_H01 (PGT-131) (antibody) gave a Fold IC50 increase relative to wild-type (pseudovirus neutralization) of 1.1 fold. Besides, the IC50, pseudovirus neutralization in test [2] is above 50 µg/mL; in test [3], 0.021 µg/mL. Besides, the IC50 (µg/mL), pseudovirus neutralization was above 50 µg/mL in test [4]; above 50 µg/mL in test [5]; above 50 µg/mL in [6]; above 50 µg/mL in test [7]; above 50 µg/mL in test [8]; 1.01 µg/mL in test [9].

PGT-141 (4964_G22; 4993_K13) (antibody): the IC50 in test [10] came out at 0.101 µg/mL. Moreover, the IC50, pseudovirus neutralization was determined as 0.01 µg/mL in [11] and 8.99 µg/mL in test [12].

With VRC01 (antibody), in test [10], the IC50 was 1.72 µg/mL. In addition, the IC50, pseudovirus neutralization in test [11] turned out to be 0.332 µg/mL; in test [13] it was 0.243 µg/mL; in [15], 0.29 µg/mL; in [16], 0.155 µg/mL; in [12], 2.86 µg/mL; in test [17] it was 0.657 µg/mL. In addition, the IC50, single-round pseudovirus neutralization in test [14] was 0.366 µg/mL.

For 5147_N06 (PGT-130) (antibody), the Fold IC50 increase relative to wild-type (pseudovirus neutralization) in [1] amounted to 0.7 fold. The IC50, pseudovirus neutralization in [2] is above 50 µg/mL; in test [3], 0.01 µg/mL; in test [18] it was 0.474 µg/mL. For the same substance, the IC50 (µg/mL), pseudovirus neutralization in test [4] was above 50 µg/mL; in test [5], above 50 µg/mL; in [6], above 50 µg/mL; in [7] it was above 50 µg/mL; in test [8], above 50 µg/mL; in test [9], 0.039 µg/mL.

In test [10], PGT-144 (4970_K22) (antibody) yielded an IC50 of 3.55 µg/mL. In addition, the IC50, pseudovirus neutralization in test [11] came out at 0.113 µg/mL; in [12] it was 20.6 µg/mL.

Regarding PGT-142 (4995_E20) (antibody), the IC50 in test [10] was 0.08 µg/mL. Also, the IC50, pseudovirus neutralization is 0.005 µg/mL in test [11] and 12.9 µg/mL in [12].

For the substance 5343_B08 (PGT-135) (antibody), the Fold IC50 increase relative to wild-type (pseudovirus neutralization) in test [1] was found to be 0.9 fold. The IC50, pseudovirus neutralization was above 50 µg/mL in [2] and 0.264 µg/mL in test [3]. The IC50 (µg/mL), pseudovirus neutralization in [4] was above 50 µg/mL; in test [5] it was above 50 µg/mL; in [6], above 50 µg/mL; in test [7] it was 10.1 µg/mL; in test [8], above 50 µg/mL; in test [9], 1.42 µg/mL.

Consider PGT-143 (4980_N08) (antibody), for which, in test [10], the IC50 is 0.135 µg/mL. The figures for the IC50, pseudovirus neutralization in test [11] and in [12] were 0.009 µg/mL and 12.3 µg/mL, respectively.

Consider PGT-145 (4995_P16) (antibody), for which the IC50 in test [10] amounted to 1.46 µg/mL. Moreover, the IC50, pseudovirus neutralization turned out to be 2.51 µg/mL in test [11] and 13.6 µg/mL in [12].

(Values after patent publication US20240132578A1.)
